Legend:
Assay in all cases: pull-down
[1] = molecular target: GST-Rps3, wt (yeast (S. cerevisiae)) (UniProt P05750)
[2] = molecular target: rps3-R116D fused to GST (yeast (S. cerevisiae)) (UniProt P05750)
[3] = molecular target: GST-a/tif32-CTD-box32 (yeast (S. cerevisiae)) (UniProt P38249)
[4] = molecular target: GST-a/tif32-CTD-box33 (yeast (S. cerevisiae)) (UniProt P38249)

| reduction of binding against wt full-length a/Tif32 [1] | reduction of binding against GST-Rps3 wt [2] | reduction of binding against wt full-length a/Tif32 [2] | reduction of binding against the wt a/Tif32-CTD [3] | reduction of binding against the wt a/Tif32-CTD [4] | Molecule |
| --- | --- | --- | --- | --- | --- |
| 50% | 35% | 50% |  |  | [35S]-labelled full-length a/Tif32 with box32 (from UniProt P38249 1-964) (natural protein) |
|  |  |  | 80% | 80% | [35S]-labelled uS3/Rps3, wt (natural protein, [35S]-labelled) MVALISKKRKLVADGVFYAELNEFFTRELAEEGYSGVEVRVTPTKTEVIIRATRTQDVLGENGRRINELTLLVQKRFKYAPGTIVLYAERVQDRGLSAVAQAESMKFKLLNGLAIRRAAYGVVRYVMESGAKGCEVVVSGKLRAARAKAMKFADGFLIHSGQPVNDFIDTATRHVLMRQGVLGIKVKIMRDPAKSRTGPKALPDAVTIIEPKEEEPILAPSVKDYRPAEETEAQAEPVEA |

Source: PMC6868437
